# According to the nanobody polyreactivity screen of Harvey et al. (2022):
# Experiment: yeast display, Sf9 membrane polyspecificity reagent, FACS + sequencing; frameworks hold sequencing errors
# Summary of the method: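 Galactose-induced (36–48 hours) yeast carrying a synthetic nanobody display library were exposed to 10% biotinylated, detergent-solubilized Sf9 membrane reagent at 4 °C for 1 hour. FACS followed streptavidin microbead enrichment, using low and high (top ~1%) gates for expression (anti-HA) and reagent binding (streptavidin). Colony PCR, MiSeq 2 × 250 sequencing and CDR-length filtering followed. Labels for polyreactivity reflect the gate of origin.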
row,Sequence,polyreactivity (PSR sort gate)
1,QVQLVESGGGLVQAGGSLRLSCAASGIIFFSNTMVGYRQAPGKDREFVAAITWSTGNTYYADSVKGRFTISRDNAKNTVYLQMNSLKTEDTAVYYCYAEYLVITLYGGVEFDYWGQGTQVTVSS,low polyreactivity
2,QVQLVESGGGLVQAGGSLRLSCAASGIIFFSYAMGWYRQAPGKERELVAAISGTGGNTYYADSVKGRFTISRDNAKNTVYLQMNSLKPEDTAVYYCAADQEWYYYFDSFAYYILGYWGQGTQVTVSS,high polyreactivity
3,QVQLVESGGGLVQAGGSLRLSCAASGIIFFWNAMGWYRQAPGKERELVAAISSGGSTYADSVKGRFTISRDNAKNTVYLQMNSLKPEDTAVYYCAARFYHGYRPYSAIYGYGYWGQGTQVTVSS,low polyreactivity
4,QVQLVESGGGLVQAGGSLRLSCAASGIIFFYYGMGWYIQAPGKERELVARISSGGSTNYADSVKGRFTISRDNAKITVYLQMNSLKQEDTAVYYCAARISTRYGYWGQGTQVTVSS,low polyreactivity
5,QVQLVESGGGLVQAGGSLRLSCAASGIIFFYYVMGWYRQAPGKERELVAAISSDGSSTYYADSVKGRFTISRDNAKNTVNLQMNSQKPEDTAVYYCAAELILYPYDFNFWGQGTQVTVSS,high polyreactivity
6,QVQLVESGGGLVQAGGSLRLSCAASGIIFGDYAMGWYRQAPGKEMELVAAITWSGGSTYYADSVKGRFTISRDNAKNTVYLQMNSLKPEDTAFYYCNADDDGRVSSTIVEYWGQGTQVTVSS,low polyreactivity
7,QVQLVESGGGLVQAGGSLRLSCAASGIIFGFNTMGWYRQAPGKERELVAVITWSGGSTYYADSVKGRFTISRVFAKNTVYLQMNCLNPDDTAVYYCATVRAVEYNYWGQGTQVTVSS,low polyreactivity
8,QVQLVESGGGLVQAGGSLRLSCAASGIIFGFYAMGWYRQAPGKERELVAAITIDGSTYYADSVKGRFTISRDNAKTTVYLQMNILKPEDTAVYYCGAQYLNVYYWEDYLGQGTQVTVSS,low polyreactivity
9,QVQLVESGGGLVQAGGSLRLSCAASGIIFGIYAMGWYRQAPGKEREFVAAISWSDGSTRYADSVKGRFTISRDNAKNTVYLQMNCLKPEDTAVYYCNTDIGPLDFGEYSYPDDYWGQGTQVTVSS,low polyreactivity
10,QVQLVESGGGLVQAGGSLRLSCAASGIIFGIYDMGWYRQAPGKERELVAAIRRSGGSTYYADSVKGRFTISRDNAKNTVYLQMNSLKPEDTAVYYCAATRHSRVRGGDYWGQGTQVTVSS,low polyreactivity
11,QVQLVESGGGLVQAGGSLRLSCAASGIIFGLYTMGWYRQAPGKERELVAAISDSGGRTYYADSVKGRFTISRDNAKNTVYLQMNSLKPEDTAVYYCAAEFWYVLEYNYWGQGTQVTVSS,high polyreactivity
12,QVQLVESGGGLVQAGGSLRLSCAASGIIFGNYAMGWYRQAPGKERELVAAITNGSSTNYADSVKGRFTISRDNAKNTVYLQMNSLKPEDTAVYYCARDGIGADGYDYWGQGTQVTVSS,low polyreactivity
13,QVQLVESGGGLVQAGGSLRLSCAASGIIFGNYAMGWYRQEPGKERELVATITWRGGSTYYADSVKGRFTISRDNAKNTVYLQMISLKPEDTAVYYCARPYASYRSFYYYGYWGQGTQVTVSS,high polyreactivity
14,QVQLVESGGGLVQAGGSLRLSCAASGIIFGRYAMGWYRQAPGKEREFVAAIRSRGGSTYYADSVKGRFTISRDNAKNTVYLQMNSLKPEDTAVYYCNAGHIYAGYRREYDYWGQGTQVTVSS,high polyreactivity
15,QVQLVESGGGLVQAGGSLRLSCAASGIIFGTNAMGWYRQAPGKERELVASITSDGSTYYADSVKGRFTISRDNAKNTVYLQMNSLKPEDTAVYYCAADHYWADGVYLYDTYEYGYWGQGTQVTVSS,low polyreactivity
16,QVQLVESGGGLVQAGGSLRLSCAASGIIFGTYAMGWYRQAPGKERELVAAISSGGRTYYADSVKGRFTISRDNAKNTVYLQMNSLKPEDTAVYYCNRPPWSRGSNYWGQGTQVTVSS,high polyreactivity
17,QVQLVESGGGLVQAGGSLRLSCAASGIIFGVYAMGWYRQAPGKERELVASIRYSSVRTYYADSVKGRFTISRDNAKNTVYLQMNSLKPEDTAVYYCAKYYVWPRYGYWGQGTQVTVSS,high polyreactivity
18,QVQLVESGGGLVQAGGSLRLSCAASGIIFGVYAMGWYRQAPGQERELVAAIDGNGSSTYYADSVKGRFTISRDNAKNTVYLQMNSLKPEDTAVYYCAAGYWSYLYYWYDFDYWGQGTQVTVSS,low polyreactivity
19,QVQLVESGGGLVQAGGSLRLSCAASGIIFGWYAMGWYRQAPGKERELVADISSDDSTYYADSVKGRFTISRDNAKNTVYLQMNSLKPEDTAVYYCAADTSYGSYWSLYYYNYYWGQGTQVTVSS,high polyreactivity
20,QVQLVESGGGLVQAGGSLRLSCAASGIIFGYNVMGWYRQAPGKERELVAAISGSGSSTYYADSVKGRFTISRDNAKITVYLQMNSLKPEDTAVYYCAARRYSTKRWRMYYWGQGTQVTVSS,high polyreactivity
21,QVQLVESGGGLVQAGGSLRLSCAASGIIFHRYAMGWYRQAPGKERELVAAISWNGGSTYYADSVKGRFTISRDNAKNTVYLQMNSLKPEDTAVYYCAARKLYSNISGYWGQGTLVTVSS,high polyreactivity
22,QVQLVESGGGLVQAGGSLRLSCAASGIIFHVYAMGWYRQAPGKERELVAAISDDGSTNYADSVKGRFTISRDNAKNTVYLQMNSLKPEDTAVYYCAKESWGRLYYRYDYWGQGTQVTVSA,low polyreactivity
23,QVQLVESGGGLVQAGGSLRLSCAASGIIFHYYAMGWSRPEPGKERELVAAITSSGDRTYYADSVKGRFTISRDTAKNTVYLQMNSLKPEDTAVYYCAKDVWRWFGYWGQGTQVTVSS,high polyreactivity
24,QVQLVESGGGLVQAGGSLRLSCAASGIIFHYYAMGWYRQAPGKEREFVASISFSGASTYYADSVKGRFTISRDNAKNTVYLQMNSLKPEDTAVYYCAARYLYGPKYYYCGQGTQVTVSS,high polyreactivity
25,QVQLVESGGGLVQAGGSLRLSCAASGIIFIFYDMGWSRQAPGKERELVATITSGTNTYADSVKGRFTISRDNAKNTVYLQMNSLKPEDTAVYSCAAGFSPASQLDYWGQGTQVTVSS,low polyreactivity
26,QVQLVESGGGLVQAGGSLRLSCAASGIIFIGNAMGWYRQAPGKERELVAAISRRGGRTYYADSVKGRFTISRDNAKNTVYLQMNSLKPEDTAVYYCNAEITVNDDDYWGQGTQVTVSS,low polyreactivity
27,QVQLVESGGGLVQAGGSLRLSCAASGIIFIGYAMGWYSQAPGKERELVAAISTRGSTTNYADSVKGRFTISRDNAKNTVYLQMNSLKPEDTAVYYCAARKYPSYRYPTGDYWGQGTQVTVSS,high polyreactivity
28,QVQLVESGGGLVQAGGSLRLSCAASGIIFITNAMGWYRQAPGKERDLVAVISFSGGGTYADSVKGRFTISRDNAKNTVYLQMNSLTPEDTAVYYCAKYWLSALTLEDDYWGQGTQVTVSS,low polyreactivity
29,QVQLVESGGGLVQAGGSLRLSCAASGIIFIVNAMGWYRQAPGKERELVAAISNGGSTNYADSVKGRFTISRDNAKNTVYLQMNSLKPEDTAVYYCADDYSTWLRAYDYWGQGTQVTVSS,low polyreactivity
30,QVQLVESGGGLVQAGGSLRLSCAASGIIFKGYDMGWYRQAPGKERELVAAISSGSTNYADSVKGRFTISRDNAKNTVYLQMNSLKPEDTAVYYCAAYNDTVPSAAHIYESWGQGTQVTVSS,low polyreactivity
